The values that follow come from article doi:10.1101/2022.06.13.495990 (bioRxiv, 2022).

This assay has as its target mCherry-RAB28 (UniProt Q99KL7 1-221). Nature of the assay: co-IP.

B1: FLAG-CFAP418 (natural protein)
chain: MAKDLDELLDEVETKFCRLDPLRLDLGERPKGDGGGGSHSGDRNGAQEKETLRSTETFKKEDDLDSLINEIFEEPDFDRKSFQKFKSKSSSNTCVRAPMQGVSKSCSPVYLSGSAIPCGIGTNTSQRACDRLRCVACDFRIVSYNDYMWDKSCDYLFFRNNMPEFHKLKTKLIEKKGARAYACQCSWRTVEELTDLQTDHQLRWVCGKH
For the molecule B1, the “fraction of CFAP418 pulled down” value was approximately 0.1%.
